Experimental data reported in patent US20080069777A1 (CBR INSTITUTE FOR BIOMEDICAL RESEARCH, published 2008).
Values belong to the binder of their own block, whether it stands above or below them.

How the values were obtained:
[1] = target: T1, human wild-type LFA-1 on cells (human, UniProt P20701 26-1170; P05107 23-769); assay: inhibition of ICAM binding to human PBMCs; average of four experiments
T1 construct: also called LFA-1 on human PBMCs

rabbit LFA-1 on PBMCs = target: T2, rabbit LFA-1 on PBMCs (rabbit, UniProt A0A5F9C4C9 27-1127; A0A5F9CF43 23-747); assay: flow cytometry on PBMCs, no treatment
T2 construct: whole, on cells; also called rabbit PBMCs
Experimental: Whole blood from healthy animals (rat, sheep, rabbit, dog, rhesus monkey, cynomologus monkey and chimpanzee) were obtained from Valley Biomedical Products and Services, Inc. PBMCs were isolated from whole blood and cultured in low adherent 6-well plates overnight in RPMI 1640 with 10% FBS, 1× Pen/Strep. PBMCs were harvested, washed once with Hanks' Balanced Salt Solution (HBSS) 1×, 20 mM HEPES buffer containing 10 mM EDTA, and then twice with HBS. Cells were resuspended in HBSS at 2×10⁶ cells/ml, 100 μl aliquots per well were added into 96-well plates (Costar round bottom). After spinning down, cell pellets were resuspended in 50 μl activating buffer (HBSS, 10 mM MgCl₂, 2 mM EGTA) or inactivating buffer (HBSS, 2 mM CaCl₂, 2 mM MgCl₂). For certain wells, PMA or DTT was added to a final concentration of 10 ng/ml or 500 μM, respectively. Cells were then incubated at 37° C. for 20 minutes.
Antibodies that recognized CD-11a from the particular species (human, sheep, dog, rat, rabbit) (1:100 dilution) were used as positive controls. […] Cells were incubated at 4° C. for 30 minutes, then washed twice with 220 μl/well HBSS containing 0.05% NaN₃, resuspended in 200 μl/well HBSS and analyzed using the GUAVA EXPRESS™ protocol (Guava Technologies, Inc., Hayward Calif.).

[2] = target: T3, mouse LFA-1 on the EL4 cell line (mouse, UniProt P24063 24-1162; P11835 24-771); assay: binding to EL4 cell line, no treatment
T3 construct: whole, on cells; also called Mouse EL4 Cell line
T3 sequence (P24063 24-1162, chain 1 of 2): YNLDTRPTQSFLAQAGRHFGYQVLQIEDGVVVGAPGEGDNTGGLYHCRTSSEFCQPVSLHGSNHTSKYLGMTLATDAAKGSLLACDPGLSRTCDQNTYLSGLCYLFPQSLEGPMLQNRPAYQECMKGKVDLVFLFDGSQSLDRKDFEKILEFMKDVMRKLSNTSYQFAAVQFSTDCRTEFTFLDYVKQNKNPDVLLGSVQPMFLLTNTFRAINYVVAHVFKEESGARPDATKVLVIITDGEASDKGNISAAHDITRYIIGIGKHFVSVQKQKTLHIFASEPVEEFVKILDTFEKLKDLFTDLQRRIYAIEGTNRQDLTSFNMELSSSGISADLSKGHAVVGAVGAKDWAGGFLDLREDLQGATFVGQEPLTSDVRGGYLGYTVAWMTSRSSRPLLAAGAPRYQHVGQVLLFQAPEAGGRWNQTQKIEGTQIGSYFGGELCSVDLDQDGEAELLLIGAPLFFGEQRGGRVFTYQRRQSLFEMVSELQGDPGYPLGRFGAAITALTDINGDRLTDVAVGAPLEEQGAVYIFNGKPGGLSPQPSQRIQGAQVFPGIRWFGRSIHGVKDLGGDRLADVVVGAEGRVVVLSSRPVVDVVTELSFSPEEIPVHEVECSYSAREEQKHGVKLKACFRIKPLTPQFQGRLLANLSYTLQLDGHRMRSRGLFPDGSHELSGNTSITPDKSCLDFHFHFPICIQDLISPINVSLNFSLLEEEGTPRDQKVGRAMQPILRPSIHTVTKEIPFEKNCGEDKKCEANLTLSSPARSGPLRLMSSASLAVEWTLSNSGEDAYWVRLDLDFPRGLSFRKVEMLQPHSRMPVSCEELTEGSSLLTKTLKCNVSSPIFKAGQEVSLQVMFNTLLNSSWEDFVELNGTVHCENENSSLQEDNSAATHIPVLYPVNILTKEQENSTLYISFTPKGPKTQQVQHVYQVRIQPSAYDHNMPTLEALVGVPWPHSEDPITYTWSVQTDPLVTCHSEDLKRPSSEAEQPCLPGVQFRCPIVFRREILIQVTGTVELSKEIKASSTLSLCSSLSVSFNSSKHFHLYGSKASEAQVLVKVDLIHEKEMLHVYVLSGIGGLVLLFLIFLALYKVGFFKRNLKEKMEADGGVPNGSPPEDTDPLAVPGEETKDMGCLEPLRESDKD
T3 sequence (P11835 24-771, chain 2 of 2): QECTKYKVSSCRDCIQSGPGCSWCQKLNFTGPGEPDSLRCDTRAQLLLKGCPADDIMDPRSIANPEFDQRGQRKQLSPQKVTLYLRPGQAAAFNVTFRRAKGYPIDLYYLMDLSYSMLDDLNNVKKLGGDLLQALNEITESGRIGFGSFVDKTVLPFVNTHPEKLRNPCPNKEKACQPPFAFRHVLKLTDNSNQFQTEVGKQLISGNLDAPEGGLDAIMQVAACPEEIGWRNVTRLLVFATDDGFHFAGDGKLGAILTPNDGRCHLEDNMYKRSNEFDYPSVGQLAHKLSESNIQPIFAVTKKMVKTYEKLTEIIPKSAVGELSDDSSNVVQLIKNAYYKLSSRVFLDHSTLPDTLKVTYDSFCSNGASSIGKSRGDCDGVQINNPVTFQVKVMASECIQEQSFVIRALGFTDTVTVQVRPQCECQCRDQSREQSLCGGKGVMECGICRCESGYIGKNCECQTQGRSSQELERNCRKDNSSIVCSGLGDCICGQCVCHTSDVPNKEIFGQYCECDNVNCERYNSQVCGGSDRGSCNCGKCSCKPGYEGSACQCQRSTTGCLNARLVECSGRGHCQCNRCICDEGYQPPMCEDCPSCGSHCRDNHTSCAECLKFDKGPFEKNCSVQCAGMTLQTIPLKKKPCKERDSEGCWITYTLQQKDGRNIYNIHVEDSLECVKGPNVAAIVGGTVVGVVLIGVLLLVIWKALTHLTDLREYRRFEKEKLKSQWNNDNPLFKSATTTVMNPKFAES

T1 sequence (P20701 other isoform, or with tags, fused parts or gaps limits assumed, chain 1 of 2): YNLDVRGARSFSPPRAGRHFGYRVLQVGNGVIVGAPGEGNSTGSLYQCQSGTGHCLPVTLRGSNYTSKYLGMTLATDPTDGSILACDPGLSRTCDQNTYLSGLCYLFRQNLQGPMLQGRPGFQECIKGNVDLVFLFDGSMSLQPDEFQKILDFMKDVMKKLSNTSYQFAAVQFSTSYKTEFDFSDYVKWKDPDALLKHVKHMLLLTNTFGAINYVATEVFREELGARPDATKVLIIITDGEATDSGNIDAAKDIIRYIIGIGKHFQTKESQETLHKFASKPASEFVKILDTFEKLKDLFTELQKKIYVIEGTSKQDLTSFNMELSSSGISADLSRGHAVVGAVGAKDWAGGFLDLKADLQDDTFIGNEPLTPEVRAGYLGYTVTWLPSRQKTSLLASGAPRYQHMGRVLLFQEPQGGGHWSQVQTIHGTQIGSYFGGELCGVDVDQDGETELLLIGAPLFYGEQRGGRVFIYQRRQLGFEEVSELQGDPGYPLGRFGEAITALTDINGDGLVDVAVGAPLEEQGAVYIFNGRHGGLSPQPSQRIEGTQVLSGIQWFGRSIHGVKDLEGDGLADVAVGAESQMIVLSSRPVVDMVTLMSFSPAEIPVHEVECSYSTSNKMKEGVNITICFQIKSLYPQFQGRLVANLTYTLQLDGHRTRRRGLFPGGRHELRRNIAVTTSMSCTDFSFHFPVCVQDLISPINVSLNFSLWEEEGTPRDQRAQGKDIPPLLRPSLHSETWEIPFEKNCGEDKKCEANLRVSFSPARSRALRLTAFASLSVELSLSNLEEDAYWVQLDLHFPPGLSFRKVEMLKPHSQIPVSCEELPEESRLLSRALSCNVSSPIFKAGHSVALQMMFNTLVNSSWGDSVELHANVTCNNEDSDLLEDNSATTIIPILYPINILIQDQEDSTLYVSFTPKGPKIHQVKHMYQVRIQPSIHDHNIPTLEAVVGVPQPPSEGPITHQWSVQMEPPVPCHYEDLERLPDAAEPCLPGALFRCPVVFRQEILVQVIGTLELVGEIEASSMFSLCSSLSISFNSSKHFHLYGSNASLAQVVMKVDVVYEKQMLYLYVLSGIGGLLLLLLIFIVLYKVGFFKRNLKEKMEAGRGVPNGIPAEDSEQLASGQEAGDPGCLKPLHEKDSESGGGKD
T1 sequence (P05107 other isoform, or with tags, fused parts or gaps limits assumed, chain 2 of 2): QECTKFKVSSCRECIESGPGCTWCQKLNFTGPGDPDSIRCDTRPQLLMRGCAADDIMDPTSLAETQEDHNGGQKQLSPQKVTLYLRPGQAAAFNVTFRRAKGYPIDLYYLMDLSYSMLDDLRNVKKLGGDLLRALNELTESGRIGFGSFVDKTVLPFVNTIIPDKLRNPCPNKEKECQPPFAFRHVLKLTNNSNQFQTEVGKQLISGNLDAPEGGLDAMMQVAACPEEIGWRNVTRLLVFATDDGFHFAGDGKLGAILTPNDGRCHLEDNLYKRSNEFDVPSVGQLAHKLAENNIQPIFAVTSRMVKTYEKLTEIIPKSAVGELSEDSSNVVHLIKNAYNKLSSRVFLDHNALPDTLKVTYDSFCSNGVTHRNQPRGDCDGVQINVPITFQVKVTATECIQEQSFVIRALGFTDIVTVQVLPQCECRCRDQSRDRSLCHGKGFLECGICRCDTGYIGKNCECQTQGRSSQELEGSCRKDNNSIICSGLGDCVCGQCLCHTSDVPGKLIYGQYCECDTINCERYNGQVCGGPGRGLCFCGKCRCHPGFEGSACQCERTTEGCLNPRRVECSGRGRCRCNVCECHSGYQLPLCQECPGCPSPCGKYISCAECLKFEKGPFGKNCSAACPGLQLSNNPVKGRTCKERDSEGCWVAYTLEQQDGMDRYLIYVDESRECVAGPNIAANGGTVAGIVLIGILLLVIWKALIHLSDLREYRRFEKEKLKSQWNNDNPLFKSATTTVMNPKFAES

IC50 [1]: 540 pM
B1: D2-57 IgG1 (antibody, V domains shown)
VH: EVQLLESGGGLVQPGGSLRLSCAASGFTFSRYVMWWVRQAPGKGLEWVSYIWPSGGNTYYADSVKGRFTISRDNSKNTLYLQMNSLRAEDTAVYYCASSYDFWSNAFDIWGQGTMVTVSS
VL: DIQMTQSPSSLSASVGDRVTITCRASQSIGSYLNWYQQKTGKAPKALIYAASSLQSGVPSRFSGSGSGTDFTLTISSLQLEDFATYYCQQSYSTPSFGQGTKVEIKR

binding result (rabbit LFA-1 on PBMCs): no binding (tested: 10 µg/ml)
binding result [2]: no binding
B2: DX-2001 (germlined variant of D2-57, IgG4) (antibody, V domains shown)
VH: B1 VH
VL: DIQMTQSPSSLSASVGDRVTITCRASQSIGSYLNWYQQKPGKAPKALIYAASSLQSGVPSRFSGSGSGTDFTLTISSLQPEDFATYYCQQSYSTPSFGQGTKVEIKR
